Measurements as given in patent US20100003195A1.
Bridge positions count the residues as written; N and C are the ends.

Key:
[1] = biological target: KDR on KDR-transfected 293H cells (human), P35968; assay: competitor 125I-VEGF (300 pM), KDR-transfected 293H cells, peptide 0.3 µM; conditions: remark: other sources report otherwise
[2] = biological target: KDR on KDR-transfected 293H cells (human), P35968; assay: competitor 125I-VEGF (300 pM), KDR-transfected 293H cells, peptide 30 µM; conditions: remark: other sources report otherwise

% inhibition of 125I-labeled VEGF binding [1]: 24.4%
% inhibition of 125I-labeled VEGF binding [2]: 48%
Binder: Ac-AGPKWCEEDWYYCMITGTGGGK-NH2 (disulfide 6-13 (inferred); also: fluorescein on C-terminal Lys in FP only) [SEQ ID NO:264]
